Entries after “also recorded” stand apart in the source; their conditions may differ.
Assays:
[1] = target: T1, PSMA immunopurified from LNCaP cells (Homo sapiens, UniProt Q04609); experiment: Binding specificity by ELISA; conditions: antibody from 5 μg/ml, 1:2 serial dilutions
T1 construct: endogenous in cells; host or cells: LNCaP cells (protein immunopurified from them)
Method: A comparison of anti-PSMA antibodies on binding to immunopurified PSMA was performed by standard ELISA to examine the specificity of binding for PSMA.
PSMA was immunopurified from LNCaP cells and tested for binding against the anti-PSMA human monoclonal antibodies 1C3, 2A10, 2F5, and 2C6. Standard ELISA procedures were performed. The anti-PSMA human monoclonal antibodies were added at a concentration of 5 μg/ml and titrated down at 1:2 serial dilutions. Goat-anti-human IgG (kappa chain-specific) polyclonal antibody conjugated with horseradish peroxidase (HRP) was used as secondary antibody. The human anti-PSMA monoclonal antibody 7F12 was used as a positive control and a blank was used as a negative control.

[2] = target: T2, PSMA-expressing LNCaP cells (Homo sapiens, UniProt Q04609); experiment: Binding specificity by flow cytometry; conditions: FITC-labeled anti-human IgG detection, different antibody concentrations
T2 construct: host or cells: LNCaP human prostate cancer cells
Method: The human PSMA-expressing prostate cancer cell line LNCaP was used to determine the specificity of anti-PSMA human monoclonal antibodies by flow cytometry. Binding of the 2F5, 2A10, and 2C6 anti-PSMA human monoclonal antibodies was assessed by incubating the LNCaP cells with the anti-PSMA human monoclonal antibodies at different concentrations. The cells were washed and binding was detected with a FITC-labeled anti-human IgG Ab. Flow cytometric analyses were performed using a FACScan flow cytometry (Becton Dickinson, San Jose, Calif.). The human anti-PSMA monoclonal antibody 7F12 (as described in PCT Publication WO 03/064606) was used as a positive control and a non-PSMA specific isotype control antibody was used as a negative control. The results are depicted in FIG. 9.

T1 sequence (Q04609 whole entry): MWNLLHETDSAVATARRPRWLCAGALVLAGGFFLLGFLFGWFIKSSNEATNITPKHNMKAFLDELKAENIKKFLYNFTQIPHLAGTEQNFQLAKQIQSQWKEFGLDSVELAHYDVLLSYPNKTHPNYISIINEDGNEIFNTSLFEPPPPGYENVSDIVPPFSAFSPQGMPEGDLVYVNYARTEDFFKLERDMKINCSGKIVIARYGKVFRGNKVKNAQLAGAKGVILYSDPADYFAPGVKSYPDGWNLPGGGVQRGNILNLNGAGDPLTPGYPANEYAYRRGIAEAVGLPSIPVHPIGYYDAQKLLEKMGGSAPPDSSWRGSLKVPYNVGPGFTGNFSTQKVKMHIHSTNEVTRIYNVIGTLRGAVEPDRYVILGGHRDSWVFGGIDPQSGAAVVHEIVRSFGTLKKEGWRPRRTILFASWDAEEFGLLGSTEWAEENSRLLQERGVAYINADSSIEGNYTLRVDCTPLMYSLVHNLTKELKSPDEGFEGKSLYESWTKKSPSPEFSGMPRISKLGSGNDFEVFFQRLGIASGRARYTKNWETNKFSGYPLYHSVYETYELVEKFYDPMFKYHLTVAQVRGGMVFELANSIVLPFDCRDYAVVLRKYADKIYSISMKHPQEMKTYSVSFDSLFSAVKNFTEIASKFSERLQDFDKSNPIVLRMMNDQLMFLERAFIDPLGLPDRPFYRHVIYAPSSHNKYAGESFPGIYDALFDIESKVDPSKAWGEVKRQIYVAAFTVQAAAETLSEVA
T2 sequence (Q04609 whole entry): as above

binding to immunopurified PSMA [1]	Molecule	binding to PSMA-expressing LNCaP cells [2]
detectable but only low level binding	2C6: human monoclonal anti-PSMA antibody, VH SEQ ID NO: 4, VL SEQ ID NO: 8 (antibody, listed as Homo sapiens, V domains shown) VH: EVQLVQSGSEVKKPGESLKISCKGSGYSFTNYWIGWVRQMPGKGLEWMGIIYPGDSDTRYSPSFQGQVTISADKSISTAYLQWSSLKASDTAMYYCASPGYTSSWTSFDYWGQGTLVTVSS VL: EIVLTQSPATLSLSPGERATLSCRASQSVSSYLAWYQQKPGQAPRLLIYDASNRATGIPARFSGSGSGTDFTLTISSLEPEDFAVYYCQQRSNWPLFTFGPGTKVDIK	bound specifically; also recorded: binds the cell surface of PSMA-expressing LNCaP cells
bound with high specificity	2F5: human monoclonal anti-PSMA antibody, VH SEQ ID NO: 3, VL SEQ ID NO: 7 (antibody, listed as Homo sapiens, V domains shown) VH: EVQLVQSGAEVKKPGESLKISCKGSGYSFTSNWIGWVRQMPGKGLEWMGIIYPGDSDTRYSPSFQGQVTISADKSISTAYLQWNSLKASDTAMYYCARQTGFLWSFDLWGRGTLVTVSS VL: AIQLTQSPSSLSASVGDRVTITCRASQDISSALAWYQQKPGKAPKLLIYDASSLESGVPSRFSGSGSGTDFTLTISSLQPEDFATYYCQQFNSYPLTFGGGTKVEIKIK	bound specifically; also recorded: binds the cell surface of PSMA-expressing LNCaP cells
detectable but only low level binding	1C3: human monoclonal anti-PSMA antibody, VH SEQ ID NO: 1, VL SEQ ID NO: 5 (antibody, listed as Homo sapiens, V domains shown) VH: QVQLVESGGGVVQPGRSLRLSCAASGFTFSSYAMHWVRQAPGKGLEWVAVISYDGNNKYYADSVKGRFTISRDNSKNTLYLQMNSLRAEDTAVYYCARAVPWGSRYYYYGMDVWGQGTTVTVSS VL: AIQLTQSPSSLSASVGDRVTITCRASQGISSALAWYQQKSGKAPKLLIFDASSLESGVPSRFSGSGSGTDFTLTISSLQPEDFATYYCQQFNSYPLTFGGGTKVEIK	–
